Data from patent publication US20120282271A1 (Genentech, published 2012).

Target: T1, Ron (Sema IPT1)-IgG fusion protein (human, UniProt Q04912 25-683, limits assumed)
T1 construct: domain: Sema IPT1; Captured on the chip or plate through an anti-human IgG (Fc specific) antibody; also called Ron-Fc; human Ron; not shown: IgG (Fc) portion, captured by rabbit anti-human IgG Fc antibody
T1 sequence (looked up): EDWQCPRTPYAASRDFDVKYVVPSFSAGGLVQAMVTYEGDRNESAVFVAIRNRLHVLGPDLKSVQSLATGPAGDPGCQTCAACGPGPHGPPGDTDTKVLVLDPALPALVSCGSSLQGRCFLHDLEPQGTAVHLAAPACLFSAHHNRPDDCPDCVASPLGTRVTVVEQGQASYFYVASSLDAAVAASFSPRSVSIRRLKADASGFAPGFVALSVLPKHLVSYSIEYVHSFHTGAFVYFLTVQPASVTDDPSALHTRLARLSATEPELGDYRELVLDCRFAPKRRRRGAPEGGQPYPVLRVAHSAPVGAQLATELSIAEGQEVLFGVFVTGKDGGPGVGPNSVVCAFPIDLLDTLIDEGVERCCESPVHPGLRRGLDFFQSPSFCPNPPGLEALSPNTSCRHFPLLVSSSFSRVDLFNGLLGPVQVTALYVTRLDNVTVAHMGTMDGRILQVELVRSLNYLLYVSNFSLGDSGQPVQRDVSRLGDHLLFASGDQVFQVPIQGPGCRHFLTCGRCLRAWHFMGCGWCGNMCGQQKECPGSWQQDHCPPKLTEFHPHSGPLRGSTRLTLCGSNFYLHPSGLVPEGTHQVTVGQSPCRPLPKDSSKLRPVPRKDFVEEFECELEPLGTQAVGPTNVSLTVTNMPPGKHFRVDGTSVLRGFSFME
Experiment: ELISA, Ron (Sema IPT1)-IgG captured on an anti-human IgG Fc coated plate, His tagged MSP detected with anti-His-HRP, four parameter fit; ELISA, not SPR; printed only as 'MSP'
Description: To determine binding affinity of hepsin-activated MSP to human Ron, surface plasmon resonance measurements on a BIAcore™-3000 instrument (GE Health Care, NJ) were performed. Rabbit anti-human IgG were chemically immobilized (amine coupling) on CM5 biosensor chips and the Ron (Sema IPT1)-IgG fusion protein was captured to give approximately 250 response units (RU). For kinetics measurements, different concentration of either hepsin-activated MSP or a commercially available MSP (R&D systems) were injected in HBS-P buffer at 25° C. with a flow rate of 30 μl/min. Association rates (kₒₙ) and dissociation rates (koff) were obtained by using a simple one-to-one Langmuir binding model (BIA-Evaluation) and the equilibrium dissociation constants (KD) were calculated (koff/kₒₙ). […] Bound MSP was detected using anti-His-HRP (Qiagen, Valencia, Calif.) followed by addition of TMB/H₂O₂ substrate (KPL, Gaithersburg, Md.). The reaction was stopped with 1M H₃PO₄ and the A₄₅₀ was measured on a Molecular Devices (Sunnyvale, Calif.) SpectraMax Plus³⁸⁴ microplate reader. The effective concentration to give half-maximal binding (EC₅₀) was determined by a four parameter fit using Kaleidagraph (Synergy Software, Reading, Pa.). […]

B1: hepsin-activated MSP (recombinant human macrophage-stimulating protein, C672A, cleaved by hepsin at Arg483-Val484) (ligand)
chain 1: QRSPLNDFQVLRGTELQHLLHAVVPGPWQEDVADAEECAGRCGPLMDCRAFHYNVSSHGCQLLPWTQHSPHTRLRRSGRCDLFQKKDYVRTCIMNNGVGYRGTMATTVGGLPCQAWSHKFPNDHKYTPTLRNGLEENFCRNPDGDPGGPWCYTTDPAVRFQSCGIKSCREAACVWCNGEEYRGAVDRTESGRECQRWDLQHPHQHPFEPGKFLDQGLDDNYCRNPDGSERPWCYTTDPQIEREFCDLPRCGSEAQPRQEATTVSCFRGKGEGYRGTANTTTAGVPCQRWDAQIPHQHRFTPEKYACKDLRENFCRNPDGSEAPWCFTLRPGMRAAFCYQIRRCTDDVRPQDCYHGAGEQYRGTVSKTRKGVQCQRWSAETPHKPQFTFTSEPHAQLEENFCRNPDGDSHGPWCYTMDPRTPFDYCALRRCADDQPPSILDPPDQVQFEKCGKRVDRLDQRRSKLR
chain 2: VVGGHPGNSPWTVSLRNRQGQHFCGGSLVKEQWILTARQCFSSCHMPLTGYEVWLGTLFQNPQHGEPSLQRVPVAKMVCGPSGSQLVLLKLERSVTLNQRVALICLPPEWYVVPPGTKCEIAGWGETKGTGNDTVLNVALLNVISNQECNIKHRGRVRESEMCTEGLLAPVGACEGDYGGPLACFTHNAWVLEGIIIPNRVCARSRWPAVFTRVSVFVDWIHKVMRLG
notes: Made by treating recombinant pro-MSP (C672A, from CHO cells) with the recombinant hepsin extracellular domain; It is a disulfide-linked α/β heterodimer; also called hepsin-treated pro-MSP
EC50: 519 pM
